# Experimental data taken from patent US20180051064A1 (AJOU UNIVERSITY INDUSTRY ACADEMIC COOPERATION FOUNDATION, published 2018).
# Where no end group is shown, it is not given here. Fc = antibody heavy-chain constant region Fc (hinge-CH2-CH3)
# T1: NRP2-b1b2 (275-595) protein (UniProt O60462 275-595)
# T1 construct: range 275-595; also called neuropilin-2 b1b2 protein
# T1 sequence (looked up): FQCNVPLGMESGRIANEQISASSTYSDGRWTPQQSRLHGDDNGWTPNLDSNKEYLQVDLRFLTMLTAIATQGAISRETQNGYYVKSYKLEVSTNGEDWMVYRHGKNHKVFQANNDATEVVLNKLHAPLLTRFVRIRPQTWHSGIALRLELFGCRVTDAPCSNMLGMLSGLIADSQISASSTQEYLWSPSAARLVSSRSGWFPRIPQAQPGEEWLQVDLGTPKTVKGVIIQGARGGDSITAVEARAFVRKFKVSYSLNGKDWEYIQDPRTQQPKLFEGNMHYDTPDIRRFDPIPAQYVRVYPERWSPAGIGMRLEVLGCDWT
# Assays:
# [1] = molecular target: T2, NRP1-b1b2 (273-586) protein (UniProt O14786 273-586); experiment: ELISA, biotinylated peptide (100 nM) on coated NRP1-b1b2
# T2 construct: range 273-586; Prepared according to Appleton et al. 2007; Biotinylated (Sulfo-NHS-LC-biotin) for the yeast display FACS; unlabelled in ELISA and SPR; also called neuropilin-1 b1b2 protein; biotinylated NRP1-b1b2
# Procedure: (§1) 1 μg of each of NRP1-b1b2 (273-586) protein, NRP2-b1b2 (275-595) protein and the control group VEGFR2 (46-753) was immobilized in each well of a 96-well EIA/RIA plate (COSTAR Corning In., USA) at room temperature for 1 hour, and then washed three times with 0.1% PBST (0.1% Tween20, pH 7.4, 137 mM NaCl, 10 mM Phosphate, 2.7 mM KCl, SIGMA-ALDRICH co., USA) for 10 minutes. After binding with 5% skim milk (5% Skim milk, pH 7.4, 137 mM NaCl, 10 mM Phosphate, 2.7 mM KCl, SIGMA-ALDRICH co., USA) for 1 hour, each well was washed three times with 0.1% PBST (0.1% Tween20, pH 7.4, 137 mM NaCl, 10 mM Phosphate, 2.7 mM KCl, SIGMA-ALDRICH co., USA) for 10 minutes. […] Each well was bound with AP-conjugated anti-biotin antibody (alkaline phosphatase-conjugated anti-biotin mAb, Sigma, USA), and then reacted with pNPP ([…], SIGMA-ALDRICH co., USA), and the absorbance at 405 nm was measured.
# [2] = molecular target: T2, NRP1-b1b2 (273-586) protein; experiment: competitive ELISA on NRP1-b1b2; TPP11 peptide varied, blocked ligand RPARPAR [10 µM], relative binding (%) [B]
# [3] = molecular target: T2, NRP1-b1b2 (273-586) protein; experiment: SPR; lower end tied to Fc-TPP8 by Table 5 (65.8)
# Procedure: (§2) Specifically, each of NRP1 and NRP2 b1b2 proteins was diluted in 10 mM Na-acetate buffer (pH 4.0), and immobilized on a CM5 sensor chip (GE healthcare, USA) at about 1000 response units (RU). […] After binding and dissociation analysis, regeneration of the CM5 chip was performed by flushing buffer (20 mM NaOH, 1M NaCl, pH10.0) at a flow rate of 30 μl/min for 1 minute.
# [4] = molecular target: T2, NRP1-b1b2 (273-586) protein; experiment: SPR; KD on NRP2-b1b2 divided by KD on NRP1-b1b2
# Procedure: as §2
# [5] = molecular target: T2, NRP1-b1b2 (273-586) protein; experiment: SPR (Biacore 2000), NRP1-b1b2 immobilised on CM5 chip
# Procedure: as §2
# [6] = molecular target: T1, NRP2-b1b2 (275-595) protein; experiment: SPR (Biacore 2000), NRP2-b1b2 immobilised on CM5 chip
# Procedure: as §2
# [7] = molecular target: T2, NRP1-b1b2 (273-586) protein; experiment: ELISA on immobilised NRP1-b1b2, absorbance at 405 nm [A]
# Procedure: as §1
# T2 sequence (O14786 273-586 limits assumed, form in doubt): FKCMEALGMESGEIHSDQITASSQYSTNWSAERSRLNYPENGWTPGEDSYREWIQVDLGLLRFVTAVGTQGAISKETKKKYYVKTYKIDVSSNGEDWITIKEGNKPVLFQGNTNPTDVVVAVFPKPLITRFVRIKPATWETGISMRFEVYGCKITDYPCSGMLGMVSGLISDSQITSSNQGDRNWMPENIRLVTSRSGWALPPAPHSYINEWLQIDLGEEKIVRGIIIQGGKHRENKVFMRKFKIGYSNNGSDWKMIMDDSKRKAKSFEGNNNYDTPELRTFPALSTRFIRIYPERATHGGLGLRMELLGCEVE
fold lower affinity than Fc-TPP11 [1],IC50 (read off the curve) [2],fold higher affinity for NRP1 than for NRP2 [3],Binding Affinity Ratio [(KD for NRP2)/KD for NRP1)] [4],Kd [5],Kd [6],EC50 (read off the curve) [7],Binder
100 fold,~2000 nM,,,,,,"HTPGNSKPTRTPRR (also: biotinylated for ELISA, position not given here, also called TPP11 peptide; synthesized TPP11 peptide) [synthetic peptide TPP11 not fused to Fc]"
,,60 fold,65.8,3.85 nM,254 nM,~3 nM,"Fc-GGGGSGGGGSGGGGSHTPGIATRTPR (Fc fusion, not shown: a dimerising Fc or GST; small tags and cut ends, also: Fc letters not given here, disulfide-linked homodimer through Fc hinge, Expressed in HEK293-F and purified on Protein A; disulfide-linked dimer) [Fc-TPP8 fusion protein]"
,,,625,1.81 nM,1130 nM,~0.5 nM,"Fc-GGGGSGGGGSGGGGSHTPGNSNQFVLTSTRPPR (Fc fusion, not shown: a dimerising Fc or GST; small tags and cut ends, also: Fc letters not given here, disulfide-linked homodimer through Fc hinge, Expressed in HEK293-F and purified on Protein A; disulfide-linked dimer) [Fc-TPP1 fusion protein]"
